# Experimental data published in patent US20260167728A1 (published 2026).
# Target: T1, huCD3e-mFc (human, UniProt P07766 23-126)
# T1 construct: not shown: mFc, not described
# Test: Pool 3 screen
# T1 sequence (P07766 23-126): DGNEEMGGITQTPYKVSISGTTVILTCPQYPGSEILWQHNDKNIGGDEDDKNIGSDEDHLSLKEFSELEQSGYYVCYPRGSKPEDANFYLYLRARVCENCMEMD
row,Binder,Kd
1,"AC3808 (CD3.304) (scFv, V domains shown, Pool 3 format (remarks)) VH: EVQLVESGGGIVQPGGSLRLSCAASGFTFSTYAMNWVRQAPGKGLEWVGRIRTKRNDYATYYADSVKGRFTISRDDSKNTAYLQMNSLKTEDTAVYYCVRHENFGNSYVSWFAHWGQGTLVTVSS VL: ELVVTQEPSLTVSPGGTVTLTCRSSNGAVTSSNYANWVQQKPGQAPRGLIGGTNKRAPGTPARFSGSLNGGKAALTLSGVQPEDEAVYYCALWYPNLWVFGGGTKLTVL",4.31 nM
2,"AC3835 (CD3.331) (scFv, V domains shown, Pool 3 format (remarks)) VH: EVQLVESGGGIVQPGGSLRLSCAASGFTFNTYAMNWVRQAPGKGLEWVGRIRTKTNDYATYYADSVKGRFTISRDDSKNTAYLQMNSLKTEDTAVYYCVRHENFGNSYVSWFAHWGQGTLVTVSS VL: ELVVTQEPSLTVSPGGTVTLTCRSSNGAVTSSNYANWVQQKPGQAPRGLIGGTNKRAPGTPARFSGSLNGGKAALTLSGVQPEDEAVYYCALWYPNLWVFGGGTKLTVL",35.7 nM
3,"AC3818 (CD3.314) (scFv, V domains shown, Pool 3 format (remarks)) VH: EVQLVESGGGIVQPGGSLRLSCAASGFTFSTYAMNWVRQAPGKGLEWVGRIRTKRNDYATYYADSVKGRFTISRDDSKNTLYLQMNSLKTEDTAVYYCVRHENFGNSYVSWFAHWGQGTLVTVSS VL: ELVVTQEPSLTVSPGGTVTLTCRSSNGAVTSSNYANWVQQKPGQAPRGLIGGTNKRAPGTPARFSGSLEGGKAALTLSGVQPEDEAVYYCALWYPNLWVFGGGTKLTVL",4.02 nM
4,"AC3820 (CD3.316) (scFv, V domains shown, Pool 3 format (remarks)) VH: EVQLVESGGGIVQPGGSLRLSCAASGFTFSTYAMNWVRQAPGKGLEWVGRIRTKRNDYATYYADSVKGRFTISRDDSKNTLYLQMNSLKTEDTAVYYCVRHENFGNSYVSWFAHWGQGTLVTVSS VL: ELVVTQEPSLTVSPGGTVTLTCRSSNGAVTSSNYANWVQQKPGQAPRGLIGGTNKRAPGTPARFSGSLDGGKAALTLSGVQPEDEAVYYCALWYPNLWVFGGGTKLTVL",3.99 nM
5,"AC3807 (CD3.303) (scFv, V domains shown, Pool 3 format (remarks)) VH: EVQLVESGGGIVQPGGSLRLSCAASGFTFSTYAMNWVRQAPGKGLEWVGRIRTKRNDYATYYADSVKGRFTISRDDSKNTAYLQMNSLKTEDTAVYYCVRHENFGNSYVSWFAHWGQGTLVTVSS VL: ELVVTQEPSLTVSPGGTVTLTCRSSNGAVTSSNYANWVQQKPGQAPRGLIGGTNKRAPGTPARFSGSGLGGKAALTLSGVQPEDEAVYYCALWYPNLWVFGGGTKLTVL",6.08 nM
6,"AC3829 (CD3.325) (scFv, V domains shown, Pool 3 format (remarks)) VH: EVQLVESGGGIVQPGGSLRLSCAASGFTFNTYAMNWVRQAPGKGLEWVGRIRTKTNNYATYYADSVKGRFTISRDDSKNTVYLQMNSLKTEDTAVYYCVRHENFGNSYVSWFAHWGQGTLVTVSS VL: ELVVTQEPSLTVSPGGTVTLTCRSSNGAVTSSNYANWVQQKPGQAPRGLIGGTNKRAPGTPARFSGSLDGGKAALTLSGVQPEDEAVYYCALWYPNLWVFGGGTKLTVL",10.1 nM
7,"AC3821 (CD3.317) (scFv, V domains shown, Pool 3 format (remarks)) VH: EVQLVESGGGIVQPGGSLRLSCAASGFTFSTYAMNWVRQAPGKGLEWVGRIRTKRNDYATYYADSVKGRFTISRDDSKNTLYLQMNSLKTEDTAVYYCVRHENFGNSYVSWFAHWGQGTLVTVSS VL: ELVVTQEPSLTVSPGGTVTLTCRSSNGAVTSSNYANWVQQKPGQAPRGLIGGTNKRAPGTPARFSGSLLGGKAGLTLSGVQPEDEAVYYCALWYPNLWVFGGGTKLTVL",4.1 nM
8,"AC3806 (CD3.302) (scFv, V domains shown, Pool 3 format (remarks)) VH: EVQLVESGGGIVQPGGSLRLSCAASGFTFSTYAMNWVRQAPGKGLEWVGRIRTKRNDYATYYADSVKGRFTISRDDSKNTAYLQMNSLKTEDTAVYYCVRHENFGNSYVSWFAHWGQGTLVTVSS VL: ELVVTQEPSLTVSPGGTVTLTCRSSNGAVTSSNYANWVQQKPGQAPRGLIGGTNKRAPGTPARFSGSALGGKAALTLSGVQPEDEAVYYCALWYPNLWVFGGGTKLTVL",5.09 nM
9,"AC3824 (CD3.320) (scFv, V domains shown, Pool 3 format (remarks)) VH: EVQLVESGGGIVQPGGSLRLSCAASGFTFNTYAMNWVRQAPGKGLEWVGRIRTKTNNYATYYADSVKGRFTISRDDSKNTVYLQMNSLKTEDTAVYYCVRHENFGNSYVSWFAHWGQGTLVTVSS VL: ELVVTQEPSLTVSPGGTVTLTCRSSNGAVTSSNYANWVQQKPGQAPRGLIGGTNKRAPGTPARFSGSALGGKAALTLSGVQPEDEAVYYCALWYPNLWVFGGGTKLTVL",10.9 nM
10,"AC3815 (CD3.311) (scFv, V domains shown, Pool 3 format (remarks)) VH: EVQLVESGGGIVQPGGSLRLSCAASGFTFSTYAMNWVRQAPGKGLEWVGRIRTKRNDYATYYADSVKGRFTISRDDSKNTLYLQMNSLKTEDTAVYYCVRHENFGNSYVSWFAHWGQGTLVTVSS VL: ELVVTQEPSLTVSPGGTVTLTCRSSNGAVTSSNYANWVQQKPGQAPRGLIGGTNKRAPGTPARFSGSALGGKAALTLSGVQPEDEAVYYCALWYPNLWVFGGGTKLTVL",4.53 nM
11,"AC3830 (CD3.326) (scFv, V domains shown, Pool 3 format (remarks)) VH: EVQLVESGGGIVQPGGSLRLSCAASGFTFNTYAMNWVRQAPGKGLEWVGRIRTKTNNYATYYADSVKGRFTISRDDSKNTVYLQMNSLKTEDTAVYYCVRHENFGNSYVSWFAHWGQGTLVTVSS VL: ELVVTQEPSLTVSPGGTVTLTCRSSNGAVTSSNYANWVQQKPGQAPRGLIGGTNKRAPGTPARFSGSLLGGKAGLTLSGVQPEDEAVYYCALWYPNLWVFGGGTKLTVL",6.65 nM
12,"AC3816 (CD3.312) (scFv, V domains shown, Pool 3 format (remarks)) VH: EVQLVESGGGIVQPGGSLRLSCAASGFTFSTYAMNWVRQAPGKGLEWVGRIRTKRNDYATYYADSVKGRFTISRDDSKNTLYLQMNSLKTEDTAVYYCVRHENFGNSYVSWFAHWGQGTLVTVSS VL: ELVVTQEPSLTVSPGGTVTLTCRSSNGAVTSSNYANWVQQKPGQAPRGLIGGTNKRAPGTPARFSGSGLGGKAALTLSGVQPEDEAVYYCALWYPNLWVFGGGTKLTVL",4.12 nM
13,"AC3825 (CD3.321) (scFv, V domains shown, Pool 3 format (remarks)) VH: EVQLVESGGGIVQPGGSLRLSCAASGFTFNTYAMNWVRQAPGKGLEWVGRIRTKTNNYATYYADSVKGRFTISRDDSKNTVYLQMNSLKTEDTAVYYCVRHENFGNSYVSWFAHWGQGTLVTVSS VL: ELVVTQEPSLTVSPGGTVTLTCRSSNGAVTSSNYANWVQQKPGQAPRGLIGGTNKRAPGTPARFSGSGLGGKAALTLSGVQPEDEAVYYCALWYPNLWVFGGGTKLTVL",10 nM

# Further binders by falling Kd, results first:
row,Kd,Binder
1,36.6 nM,"AC3804 (CD3.300) (scFv, V domains shown, Pool 3 format (remarks)) VH: EVQLVESGGGIVQPGGSLRLSCAASGFTFSTYAMNWVRQAPGKGLEWVGRIRTKRNNYATYYADSVKGRFTISRDDSKNTVYLQMNSLKTEDTAVYYCVRHENFGNSYVSWFAHWGQGTLVTVSS VL: ELVVTQEPSLTVSPGGTVTLTCRSSNGAVTSSNYANWVQQKPGQAPRGLIGGTNKRAPGTPARFSGSLLEGKAALTLSGVQPEDEAVYYCALWYPNLWVFGGGTKLTVL"
2,23.4 nM,"AC3834 (CD3.330) (scFv, V domains shown, Pool 3 format (remarks)) VH: EVQLVESGGGIVQPGGSLRLSCAASGFTFNTYAMNWVRQAPGKGLEWVGRIRTKTNDYATYYADSVKGRFTISRDDSKNTAYLQMNSLKTEDTAVYYCVRHENFGNSYVSWFAHWGQGTLVTVSS VL: ELVVTQEPSLTVSPGGTVTLTCRSSNGAVTSSNYANWVQQKPGQAPRGLIGGTNKRAPGTPARFSGSGLGGKAALTLSGVQPEDEAVYYCALWYPNLWVFGGGTKLTVL"
3,7.21 nM,"AC3828 (CD3.324) (scFv, V domains shown, Pool 3 format (remarks)) VH: EVQLVESGGGIVQPGGSLRLSCAASGFTFNTYAMNWVRQAPGKGLEWVGRIRTKTNNYATYYADSVKGRFTISRDDSKNTVYLQMNSLKTEDTAVYYCVRHENFGNSYVSWFAHWGQGTLVTVSS VL: ELVVTQEPSLTVSPGGTVTLTCRSSNGAVTSSNYANWVQQKPGQAPRGLIGGTNKRAPGTPARFSGSLGGGKAALTLSGVQPEDEAVYYCALWYPNLWVFGGGTKLTVL"
4,7 nM,"AC3826 (CD3.322) (scFv, V domains shown, Pool 3 format (remarks)) VH: EVQLVESGGGIVQPGGSLRLSCAASGFTFNTYAMNWVRQAPGKGLEWVGRIRTKTNNYATYYADSVKGRFTISRDDSKNTVYLQMNSLKTEDTAVYYCVRHENFGNSYVSWFAHWGQGTLVTVSS VL: ELVVTQEPSLTVSPGGTVTLTCRSSNGAVTSSNYANWVQQKPGQAPRGLIGGTNKRAPGTPARFSGSLNGGKAALTLSGVQPEDEAVYYCALWYPNLWVFGGGTKLTVL"
5,5.56 nM,"AC3812 (CD3.308) (scFv, V domains shown, Pool 3 format (remarks)) VH: EVQLVESGGGIVQPGGSLRLSCAASGFTFSTYAMNWVRQAPGKGLEWVGRIRTKRNDYATYYADSVKGRFTISRDDSKNTAYLQMNSLKTEDTAVYYCVRHENFGNSYVSWFAHWGQGTLVTVSS VL: ELVVTQEPSLTVSPGGTVTLTCRSSNGAVTSSNYANWVQQKPGQAPRGLIGGTNKRAPGTPARFSGSLLGGKAGLTLSGVQPEDEAVYYCALWYPNLWVFGGGTKLTVL"
6,5.09 nM,"AC3810 (CD3.306) (scFv, V domains shown, Pool 3 format (remarks)) VH: EVQLVESGGGIVQPGGSLRLSCAASGFTFSTYAMNWVRQAPGKGLEWVGRIRTKRNDYATYYADSVKGRFTISRDDSKNTAYLQMNSLKTEDTAVYYCVRHENFGNSYVSWFAHWGQGTLVTVSS VL: ELVVTQEPSLTVSPGGTVTLTCRSSNGAVTSSNYANWVQQKPGQAPRGLIGGTNKRAPGTPARFSGSLGGGKAALTLSGVQPEDEAVYYCALWYPNLWVFGGGTKLTVL"
7,4.1 nM,"AC3814 (CD3.310) (scFv, V domains shown, Pool 3 format (remarks)) VH: EVQLVESGGGIVQPGGSLRLSCAASGFTFSTYAMNWVRQAPGKGLEWVGRIRTKRNDYATYYADSVKGRFTISRDDSKNTLYLQMNSLKTEDTAVYYCVRHENFGNSYVSWFAHWGQGTLVTVSS VL: ELVVTQEPSLTVSPGGTVTLTCRSSNGAVTSSNYANWVQQKPGQAPRGLIGGTNKRAPGTPARFSGSLLGGKAALTLSGVQPEDEAVYYCALWYPNLWVFGGGTKLTVL"
8,3.86 nM,"AC3817 (CD3.313) (scFv, V domains shown, Pool 3 format (remarks)) VH: EVQLVESGGGIVQPGGSLRLSCAASGFTFSTYAMNWVRQAPGKGLEWVGRIRTKRNDYATYYADSVKGRFTISRDDSKNTLYLQMNSLKTEDTAVYYCVRHENFGNSYVSWFAHWGQGTLVTVSS VL: ELVVTQEPSLTVSPGGTVTLTCRSSNGAVTSSNYANWVQQKPGQAPRGLIGGTNKRAPGTPARFSGSLNGGKAALTLSGVQPEDEAVYYCALWYPNLWVFGGGTKLTVL"
9,3.4 nM,"AC3819 (CD3.315) (scFv, V domains shown, Pool 3 format (remarks)) VH: EVQLVESGGGIVQPGGSLRLSCAASGFTFSTYAMNWVRQAPGKGLEWVGRIRTKRNDYATYYADSVKGRFTISRDDSKNTLYLQMNSLKTEDTAVYYCVRHENFGNSYVSWFAHWGQGTLVTVSS VL: ELVVTQEPSLTVSPGGTVTLTCRSSNGAVTSSNYANWVQQKPGQAPRGLIGGTNKRAPGTPARFSGSLGGGKAALTLSGVQPEDEAVYYCALWYPNLWVFGGGTKLTVL"
